# Experimental data: patent US20250230234A1 (Sanofi, published 2025)
# Where “and” joins values, the source holds several entries; their conditions need not be identical. Identical values can stand only once.
# T1: huFcγRIIa_H167 (human, UniProt P12318 36-218, limits assumed)
# T1 construct: also called huFcγRIIA H167 polymorph
# T1 sequence (looked up): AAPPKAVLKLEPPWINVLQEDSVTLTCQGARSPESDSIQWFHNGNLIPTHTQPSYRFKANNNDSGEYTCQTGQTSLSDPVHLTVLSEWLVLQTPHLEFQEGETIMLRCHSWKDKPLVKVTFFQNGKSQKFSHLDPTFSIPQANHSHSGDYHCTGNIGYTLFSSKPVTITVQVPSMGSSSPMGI
# T2: huFcγRIIa_R167 (human, UniProt P12318 36-218, limits assumed)
# T2 construct: also called huFcγRIIA R167 polymorph
# T2 sequence (looked up): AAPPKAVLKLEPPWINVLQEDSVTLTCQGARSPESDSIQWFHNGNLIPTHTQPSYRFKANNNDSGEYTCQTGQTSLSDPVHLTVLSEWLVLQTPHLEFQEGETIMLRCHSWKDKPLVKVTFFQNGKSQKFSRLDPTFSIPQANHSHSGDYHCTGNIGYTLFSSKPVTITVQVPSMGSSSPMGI
# Experiments:
# [1] = target: T3, human GPRC5D (full length, on cells) (human, UniProt Q9NZD1 1-345); assay: flow cytometry on MM.1R cells, apparent KD, N = 3
# T3 construct: also called huGPRC5D; hGPRC5D
# T3 sequence (Q9NZD1 whole entry): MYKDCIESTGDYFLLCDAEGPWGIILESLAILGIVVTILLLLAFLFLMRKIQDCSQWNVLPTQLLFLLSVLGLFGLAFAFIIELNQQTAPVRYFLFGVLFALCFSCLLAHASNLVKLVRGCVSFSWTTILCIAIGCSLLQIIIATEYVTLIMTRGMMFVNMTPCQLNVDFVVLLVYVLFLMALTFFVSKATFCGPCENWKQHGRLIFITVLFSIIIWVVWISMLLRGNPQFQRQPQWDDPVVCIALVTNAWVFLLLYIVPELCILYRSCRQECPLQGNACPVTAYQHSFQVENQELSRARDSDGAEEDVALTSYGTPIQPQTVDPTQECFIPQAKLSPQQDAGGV
# Method: (§1) FACS analyses were performed to determine the ability of the ADCC-enhanced antibodies to bind to cells that express GPRC5D on their surface.
# (§2) Analyses were performed with Forecyt® Software. Cells were first gated in FSC (forward scatter)/SSC (side scatter). From the resulting cell population, single live cells were gated. Binding was analyzed as median fluorescence intensity (MFI) of the secondary antibody. Curves and apparent KD (“AppKD”) calculations were generated using GraphPad Prism Software (FIG. 2).
# huFcRn [2] = target: T4, huFcRn (human, UniProt P55899 24-297; P61769 21-119); assay: SPR Biacore T200, huFcRn on biotin CAPture, pH 5.9, mean of two; pH 5.9; fold change vs BM1 IgG1 wt
# T4 construct: also called human FcRn
# T4 sequence (P55899 24-297 limits assumed, chain 1 of 2): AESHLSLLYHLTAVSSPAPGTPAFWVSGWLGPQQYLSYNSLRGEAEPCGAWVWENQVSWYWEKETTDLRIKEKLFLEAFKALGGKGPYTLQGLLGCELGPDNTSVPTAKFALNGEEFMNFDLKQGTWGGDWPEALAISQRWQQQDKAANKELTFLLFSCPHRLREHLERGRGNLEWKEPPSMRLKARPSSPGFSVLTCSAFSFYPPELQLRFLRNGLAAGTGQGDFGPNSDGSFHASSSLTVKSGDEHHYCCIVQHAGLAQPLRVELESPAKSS
# T4 sequence (P61769 21-119 limits assumed, chain 2 of 2): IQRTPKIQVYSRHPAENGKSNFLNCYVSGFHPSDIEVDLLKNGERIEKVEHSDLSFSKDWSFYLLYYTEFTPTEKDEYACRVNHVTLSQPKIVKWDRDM
# [3] = target: T3, human GPRC5D (full length, on cells); assay: flow cytometry on MM.1R cells, apparent KD, N = 2
# Method: as §1, §2
# huFcγRIIIb = target: T5, huFcγRIIIb (human, UniProt O75015 17-200); assay: SPR Biacore T200, receptor captured by anti-His, single cycle kinetics, mean of two
# T5 construct: also called human FcγRIIIb
# T5 sequence (O75015 17-200 limits assumed): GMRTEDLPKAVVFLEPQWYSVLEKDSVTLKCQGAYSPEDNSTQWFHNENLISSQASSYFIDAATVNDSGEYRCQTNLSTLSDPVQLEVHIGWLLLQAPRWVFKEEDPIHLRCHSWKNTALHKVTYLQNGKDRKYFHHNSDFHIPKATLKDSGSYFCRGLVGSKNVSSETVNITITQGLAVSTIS
# Method: (§3) The interaction of the antibodies with human Fc receptors was analysed by SPR using a Biacore™ T200 instrument in the following test conditions: [0242] Immobilization of anti-His antibodies on a CM5 sensor chip via amine coupling for seven Fcγ receptors: huFcγRI, huFcγRIIa_H131, huFcγRIIa_R131, huFcγRIIb/c, huFcγRIIIa_V158, huFcγRIIIa_F158, huFcγRIIIb, or use of biotin CAPture for the huFcRn analysis [0243] Capture of each of the Fc receptors [0244] Affinity constant determination by single cycle kinetics (SCK) at concentrations ranging from 0.6 nM to 2000 nM [0245] Interaction with huFcRn was studied at pH5.9 and pH7.4
# huFcγRIIIa_V158 = target: T6, huFcγRIIIa_V158 (human, UniProt P08637 17-208); assay: as above
# T6 construct: Recombinant receptor captured on the SPR chip through anti-His antibodies; V at position 158 (mature numbering, as the name says); also called human FcγRIIIa V158 polymorph; CD16a
# T6 sequence (P08637 17-208 F176V limits assumed): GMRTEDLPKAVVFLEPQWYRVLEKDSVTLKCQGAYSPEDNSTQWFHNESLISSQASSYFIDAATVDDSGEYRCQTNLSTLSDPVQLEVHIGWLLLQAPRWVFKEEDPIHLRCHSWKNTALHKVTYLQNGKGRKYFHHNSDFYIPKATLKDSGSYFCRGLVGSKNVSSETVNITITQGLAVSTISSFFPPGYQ
# Method: as §3
# huFcγRIIIa_F158 = target: T7, huFcγRIIIa_F158 (human, UniProt P08637 17-208); assay: as above
# T7 construct: Recombinant receptor captured on the SPR chip through anti-His antibodies; also called human FcγRIIIa F158 polymorph; CD16a
# T7 sequence (P08637 17-208 limits assumed): as the sequence (P08637 17-208 F176V limits assumed) above, with V160F counted along it
# Method: as §3
# huFcγRI = target: T8, huFcγRI (human, UniProt P12314 16-288); assay: as above
# T8 construct: also called human FcγRI
# T8 sequence (P12314 16-288 limits assumed): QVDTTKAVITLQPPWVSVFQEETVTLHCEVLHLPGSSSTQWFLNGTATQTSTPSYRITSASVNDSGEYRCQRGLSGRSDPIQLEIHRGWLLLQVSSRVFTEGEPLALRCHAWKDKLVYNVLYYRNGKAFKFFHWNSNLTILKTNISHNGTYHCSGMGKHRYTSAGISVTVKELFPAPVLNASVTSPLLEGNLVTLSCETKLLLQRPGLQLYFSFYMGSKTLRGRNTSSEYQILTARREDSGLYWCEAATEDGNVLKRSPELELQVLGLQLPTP
# Method: as §3
# huFcγRIIa_H167 = target: T1, huFcγRIIa_H167; assay: as above
# Method: as §3
# huFcγRIIa_R167 [4] = target: T2, huFcγRIIa_R167; assay: as above
# Method: as §3
# [5] = target: T9, cynomolgus FcγRIIIa expressed on HEK293 T cells (cynomolgus, UniProt Q8SPW2 17-254); assay: flow cytometry on HEK293 T cells expressing cyno FcγRIIIa, apparent KD, mean of three
# T9 construct: whole, on cells; also called cyno FcγRIIIa; cy FcγRIIIa
# T9 sequence (Q8SPW2 17-254): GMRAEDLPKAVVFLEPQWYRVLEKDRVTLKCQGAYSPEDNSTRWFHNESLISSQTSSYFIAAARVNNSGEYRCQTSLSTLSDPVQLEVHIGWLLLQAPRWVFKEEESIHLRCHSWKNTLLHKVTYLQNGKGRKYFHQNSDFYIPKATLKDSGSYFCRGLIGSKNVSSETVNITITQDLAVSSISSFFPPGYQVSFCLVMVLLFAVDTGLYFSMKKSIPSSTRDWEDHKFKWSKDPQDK
# Method: (§4) The antibodies were tested using FACS for their ability to bind cells that express human or cynomolgus FcγRIIIa on their surface. The cell lines used were recombinant stable HEK293 T cells expressing human FcγRIIIa V158 and cynomolgus FcγRIIIa to assess cynomolgus cross-reactivity.
# (§5) For dose-response curves, cells were incubated with a serial dilution of the antibodies (from 0.0001 μg/mL to 100 μg/mL) for 1 h at 4° C.
# (§6) The apparent KD was determined for each molecule by drawing an appropriate non-linear regression curve using the one site-specific binding four parameters model with GraphPad Prism Software (FIG. 1).
# [6] = target: T3, human GPRC5D (full length, on cells); assay: cell-based or functional assay
# [7] = target: T3, human GPRC5D (full length, on cells); assay: FACS on MM.1R cells (GPRC5D-positive), serial antibody dilution, goat anti-human IgG A488 secondary antibody, median fluorescence intensity
# Method: as §1, §2
# [8] = target: T3, human GPRC5D (full length, on cells); assay: cell-based or functional assay; remark: listed apart in the source
# huFcγRIIa_R167 [9] = target: T2, huFcγRIIa_R167; assay: SPR Biacore T200, receptor captured by anti-His, single cycle kinetics
# [10] = target: T3, human GPRC5D (full length, on cells); assay: flow cytometry on MM.1R cells, apparent KD, mean
# Method: as §1, §2
# [11] = target: T3, human GPRC5D (full length, on cells); assay: cell-based or functional assay; remark: listed apart in the source
# [12] = target: T9, cynomolgus FcγRIIIa expressed on HEK293 …; assay: flow cytometry on HEK293 T cells expressing cyno FcγRIIIa, against BM2 IgG1 wt
# Method: as §4, §5
# (§7) Analyses were performed with VenturiOne® Software. Cells were first gated in FSC/SSC. From the resulting cell population, single cells and following viable cells were gated. Binding was analyzed as median fluorescence intensity (MFI) of the secondary antibody.
# [13] = target: T3, human GPRC5D (full length, on cells); assay: cell-based or functional assay; remark: listed apart in the source
# [14] = target: T3, human GPRC5D (full length, on cells); assay: cell-based or functional assay; remark: listed apart in the source
# [15] = target: T10, human FcγRIIIa V158 expressed on HEK293 T cells (human, UniProt P08637 17-254); assay: flow cytometry on HEK293 T cells expressing human FcγRIIIa V158, against BM2 IgG1 wt
# T10 construct: whole, on cells; Cell-surface form, kept apart from the soluble His-captured receptor m11; also called HEK293 T human FcγRIIIa V158; hu FcγRIIIa
# T10 sequence (P08637 17-254 F176V): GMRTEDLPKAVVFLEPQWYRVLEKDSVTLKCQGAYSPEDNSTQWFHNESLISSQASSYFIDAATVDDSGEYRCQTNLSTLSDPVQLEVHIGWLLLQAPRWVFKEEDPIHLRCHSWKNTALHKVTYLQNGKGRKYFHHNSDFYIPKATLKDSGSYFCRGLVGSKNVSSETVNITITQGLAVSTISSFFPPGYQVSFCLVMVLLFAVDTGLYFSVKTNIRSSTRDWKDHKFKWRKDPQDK
# Method: as §4, §5, §7
# [16] = target: T10, human FcγRIIIa V158 expressed on HEK293 …; assay: flow cytometry on HEK293 T cells expressing human FcγRIIIa V158, apparent KD, mean of three
# Method: as §4, §5, §6
# [17] = target: T3, human GPRC5D (full length, on cells); assay: flow cytometry on MM.1R cells, apparent KD, N = 1
# Method: as §1, §2
# huFcRn [18] = target: T4, huFcRn; assay: SPR Biacore T200, huFcRn on biotin CAPture, pH 5.9, mean of two; pH 5.9
# Method: as §3
binder,measurement,setting,value
"clone 11 in DE-DSB format (anti-GPRC5D IgG1 with S239D/I332E/R292C/V302C Fc mutations) (antibody, human IgG1, lambda light chain; also called 11-DE-DSB; 11 DE-DSB) heavy: EVQLVESGGGLVQPGGSLRLSCAASGFTVSSNYMSWVRQAPGKGLEWVSVIYSGGSTYYADSVKGRFTISRDNSKNTLYLQMNSLRAEDTAVYYCARGFLAFGRYYYGMDVWGQGTTVTVSSASTKGPSVFPLAPSSKSTSGGTAALGCLVKDYFPEPVTVSWNSGALTSGVHTFPAVLQSSGLYSLSSVVTVPSSSLGTQTYICNVNHKPSNTKVDKKVEPKSCDKTHTCPPCPAPELLGGPDVFLFPPKPKDTLMISRTPEVTCVVVDVSHEDPEVKFNWYVDGVEVHNAKTKPCEEQYNSTYRCVSVLTVLHQDWLNGKEYKCKVSNKALPAPEEKTISKAKGQPREPQVYTLPPSRDELTKNQVSLTCLVKGFYPSDIAVEWESNGQPENNYKTTPPVLDSDGSFFLYSKLTVDKSRWQQGNVFSCSVMHEALHNHYTQKSLSLSPG light: not shown",Kd,[1],0.019 nM
same,Fold change vs BM1 IgG1 wt,huFcRn [2],1 fold
same,Kd,[3],0.018 nM
same,Fold change vs BM1 IgG1 wt,huFcγRIIIb,34 fold
same,Kd,huFcγRIIIb,52.9 nM
same,Fold change vs BM1 IgG1 wt,huFcγRIIIa_V158,4 fold
same,Kd,huFcγRIIIa_V158,12.2 nM
same,NormB,huFcγRIIIa_V158,38
same,Fold change vs BM1 IgG1 wt,huFcγRIIIa_F158,10 fold
same,Kd,huFcγRIIIa_F158,22.7 nM
same,NormB,huFcγRIIIa_F158,45
same,Fold change vs BM1 IgG1 wt,huFcγRI,2 fold
same,Kd,huFcγRI,0.499 nM
same,Fold change vs BM1 IgG1 wt,huFcγRIIa_H167,1 fold
same,Kd,huFcγRIIa_H167,2580 nM
same,NormB,huFcγRIIa_H167,15
same,NormB,huFcγRIIa_R167 [4],2
same,Kd,[5],1.4 nM
same,"relEC50 Median, ADCC (calcein release) against MM.1R cells with NK cells",[6],6 ng/ml and 40.1 pM
same,EC50 (read off the curve),[7],~0.02 nM
same,"relEC50 median, ADCC over four days (Incucyte) against MM.1R cells with NK cells",[8],0.87 ng/ml and 6 pM
same,binding result,huFcγRIIa_R167 [9],no binding (tested: 0.6 nM to 2000 nM)
same,Kd,[10],0.024 nM
same,"EC50rel geometric mean, ADCP by macrophages against MM.1R cells (n = 5)",[11],0.0359 µg/mL
same,Fold change vs IgG1 wt,[12],26 fold
same,"EC50 geometric mean, ADCP by macrophages against MM.1R cells (n = 5)",[13],0.248 nM
same,"EC50rel, ADCP by macrophages against MM.1R cells, Donor1",[13],0.297 nM
same,"EC50rel, ADCP by macrophages against MM.1R cells, Donor3",[13],0.303 nM
same,"EC50rel, ADCP by macrophages against MM.1R cells, Donor4",[13],0.517 nM
same,"EC50rel, ADCP by macrophages against MM.1R cells, Donor5",[13],0.0528 nM
same,"relEC50 Median, ADCC (calcein release) against EJM cells with NK cells",[14],259 pM and 37.5 ng/ml
same,Fold change vs IgG1 wt,[15],28 fold
same,Kd,[16],1.22 nM
same,Kd,[17],0.036 nM
same,Kd,huFcRn [18],982 nM
